From the supplement of paper PMC12636428

tested on: Saccharomyces cerevisiae; assay: transcriptional activation domain activity (GFP:mCherry ratio, weighted mean of sorted bins, harmonized to initial dataset scale) (arbitrary fluorescence ratio units); higher = stronger transcriptional activation; conditions: beta-estradiol 1 µM; induction time 4 h
Experimental: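 53-aa protein tiles (fungal proteins plus yeast TF control tiles) fused C-terminally to a DBD-estrogen-binding domain-mCherry synthetic TF, integrated in S. cerevisiae (URA3 locus) with a GFP reporter. Cells were induced with 1 uM beta-estradiol for 4 h at 30 C, FACS-sorted into 8 bins by GFP:mCherry ratio and barcodes sequenced. Activity is the read-weighted mean bin fluorescence (GFP:mCherry), averaged over barcodes (median 12); tiles under 50 reads were discarded. New active-learning values were harmonized by linear fit onto the scale of the initial (Hummel et al.) dataset. The assay saturates at low and high signal.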

Row | Sequence | transcriptional activation domain activity
1 | GAKDLDDAVSIKVNEDGTYDVSVHVADVSFFVKPNTALDRDARKRATSVYLVQ | 48400
2 | GDKEKRKTSRRSRSPSRGRHQRRGGGGGEESRPRSESPRRRRRRLDSSARRDD | 44400
3 | SPWVSWADTHSNFSRVVQVPSIYWRADPYSTASAETLRWATVVCVLLFFAYFR | 42700
4 | WSHPLRMTYFLVLVFFSCTWVGGVLRRGWGYLVLNAFCRHSYICGVCCIHYLS | 18800
5 | LCLLHRWKEFNQPEDVKCAVEYLRHLRGLPLDTFEVSHKVVTILLVQVLGIQV | 48900
6 | IFRVTLLLVYFWTSSIIIGVTQYIGTPLYLISKDHYYRFMAFTKQCMTLLVLS | 65400
7 | SFLIGGGSAFWLITYGLFYWASRLSLDSLASVVLYLGYLFLLALFDFLITGTI | 36700
8 | AKDEGEEEEDGSTSLNGTGKGTGTGKTHRGARGSKKGKKDGNETTSKAKGDGV | 29500
9 | SFLIFLLCEYARHVLVTSITVPHYLEYADVWRGNGQMDFRLLIRMFSTDTRRK | 45000
10 | KTVEEIWRISQGAVEGEEKGREREKAGLCVRACGASWHSQVLCAALVEVVGLS | 41700
11 | GVLFCLSCLSFINLSFFLGGGCLFSFSFLFPALVWRYAFFLLVLDYRRILNIP | 36900
12 | SGQSVVWEAQKLVHKGFLIDAHVVVVFYVMGCFFIYVLARLRCSNPKLIVMQI | 62800
13 | GATSTPAATGTTGGLFGSGGTTTGGFGSTSTPAAGGFGSTSTGGGLFGAKPAT | 21400
14 | MCLRKVSSLFYIGILFVDLFPTTYVSWWFFFFFLCLNLFVLAMICFGVFWFLC | 29300
15 | MHCRDIMRFNEMELAKLRLLLGSNCQALRNTASLLSRNLACSKIIYLSVRLGE | 21000
16 | TVQLLKLFCAFSSLSSILIALLLQTPYYLATTWGTLLRRYIIFFSFPLINSIS | 54200
17 | FSLLSFCCLLVPLLLSYIPLTTSHVFPILLFFFTLPLTSALPLLLLYLFHELL | 47000

Row | Sequence | transcriptional activation domain activity
18 | PLPPSSPHWLVWIHAQDVVTMRMPSRIRPLLQELLEVIISVIQPSLHSAPQSG | 49500
19 | FLYLLSRYLGLAVHITNTVFAILVGHYQVIPVHLCRIGLVYQGAVLFVMLGIL | 46900
20 | DLYNHSYRLHRRKRPGMKEVYLSAMGFRMMGVKGFREWSFLWRVRLAAAPWWA | 52600
21 | FVLLLFTCVHVFVVYLVVIAFFTVNICLLWTIALSFMLWYIFFCNLSCSTWPL | 54300
22 | PPGRVAPDAESVGYVLHSRLLTLLFPLFFFSLPLYNSSLLAGWAGWGLMMITF | 62900
23 | GRRRRKGEESRGRKNAEERKGGRKEGPGAGRVEAEGRAEATRTEKGEEGGSGG | 34800
24 | QWIHQYIAVPSGTPRDKCHLRQFCYMGLEQWGVGFIIGLLPLLLSVSLCIFLV | 60400
25 | LIRAVWSHFKADFNAIYLGRLLVLLAYQKRRPRPPTGYNLGHHADPGLHTFWA | 38200
26 | EKGGGRDGETAAVEGEKEVQNGDAQTEADGNASTDGGTKRRRKGKKAAAEADD | 24100
27 | KALLLLLRIAHLQFNKIPLTLIFDQFLNVAILCDMYSKGNEKYLLISWVFHRE | 28800
28 | ARVLRWCLTMICLTVSALLGRVILFSSAALTLVEILHDDFGFSRNLVLKNLCN | 90400
29 | QGEEGEKKAGGRGRGGGRKKAEKHMAEGSGDEISPKKSGKGGEAGGSKAAAGA | 33700
30 | LVLRSPAILTLEEEEDVAANLSQYSVQCSEVDKFLLTYVILKLKLVKGKCLIF | 72300
31 | LRLAVKNMSEDLPPLVPDIVNLVKRLKWSKAACCYYVLVSNALSLVVFLIDTY | 54900
32 | NANADSNIAGNPKNNDATIDNELTQILNEYNMNFNDNLGTSTSGKNKSACPSS | 54200
33 | MFPGLQYTLLCIHLSCDFIICCRAFLPYYLCFSHYFPVLMCPVSPVLILVWFI | 53600
34 | AAAAAAAAETAADEKPAEEAGEPPAAEPEAAEPAKEEAAPAEEAAAAEAVPAP | 54300
